The results in this text go back to patent US7205275 (dated 2007).

Primed or numbered codes have the meaning given here. Where no end group is shown, it is not given here. [ ]: non-standard residue; d: D form. Fc(4) = non-antigen-binding fragment of an antibody (from proteolytic digestion of a whole antibody); Fc = immunoglobulin Fc domain fused to the peptide (peptibody); Fc(7) = Fc domain, peptide fused N- or C-terminal to it

For the assay, the target named is T1, human Ang-2 (human, UniProt O15123).
T1 chain: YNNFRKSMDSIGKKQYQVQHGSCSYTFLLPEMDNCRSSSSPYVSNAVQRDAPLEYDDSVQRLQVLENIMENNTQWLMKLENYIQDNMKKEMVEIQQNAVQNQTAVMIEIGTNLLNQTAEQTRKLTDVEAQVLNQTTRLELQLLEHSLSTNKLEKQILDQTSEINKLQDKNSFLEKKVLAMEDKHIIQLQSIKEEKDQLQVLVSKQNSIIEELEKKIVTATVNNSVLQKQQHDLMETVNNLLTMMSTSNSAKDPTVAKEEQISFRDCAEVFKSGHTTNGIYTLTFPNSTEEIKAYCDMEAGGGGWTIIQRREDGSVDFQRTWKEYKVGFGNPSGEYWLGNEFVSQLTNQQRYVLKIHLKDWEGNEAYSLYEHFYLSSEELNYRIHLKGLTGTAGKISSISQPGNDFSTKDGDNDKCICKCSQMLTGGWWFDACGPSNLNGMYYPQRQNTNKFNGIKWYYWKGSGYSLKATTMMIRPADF
The assay is described as follows: competition ELISA vs Tie-2.
What is called IC50 is the concentration that inhibits the measured activity by half. Low values mean greater potency, high ones weaker potency. With M[Fc(4)]GGGGGAQTTIGSMCQWDPWTCEHMQGGLE (not fully specified (bridges); cysteine pairing not given here) [Con4-C4 (C)], the IC50 worked out at 9.8 nM.

M[Fc(4)]GGGGGAQWAAQEECEWDPWTCEHMGRMLE (not fully specified; cysteine pairing not given here) [Con4-49 (C)]: the IC50 is 0.19 nM.

In turn, M[Fc]GGGGGAQVPRQKDCEWDPWTCEHMYVGLE (not fully specified; cysteine pairing not given here) [Con4-35 (C)] registered an IC50 of 0.18 nM. The IC50 values of the last two molecules are within 1.5-fold of each other.

In turn, M[Fc(7)]GGGGGAQTQLVSLCEWDPWTCRLLDGWLE (not fully specified (bridges); cysteine pairing not given here) [Con4-12 (C)] displayed an IC50 above 1000 nM.

In the case of M[Fc(7)]GGGGGAQAATQEECEWDPWTCRLLQGWLE (not fully specified (bridges); cysteine pairing not given here) [AC5-Con4 (C)], the IC50 is above 1000 nM.

As to M[Fc(7)]GGGGGAQTWPQDKCEWDPWTCEHMGSTLE (not fully specified (bridges); cysteine pairing not given here) [Con4-27 (C)], the IC50 was determined as 0.22 nM.

Take M[Fc(4)]GGGGGAQGTSPSFCQWDPWTCSHMVQGLE (not fully specified; cysteine pairing not given here) [Con4-9 (C)]: the IC50 worked out at 20.1 nM.

Regarding M[Fc(7)]GGGGGAQVLGGQGCQWDPWTCSHLEDGLE (not fully specified (bridges); cysteine pairing not given here) [Con4-1 (C)], the IC50 stood at 2.47 nM.

The molecule M[Fc]GGGGGAQPMNQVECDWDPWTCEHMPRSLE (not fully specified; cysteine pairing not given here) [Con4-33 (C)] came in with an IC50 of 0.52 nM.

M[Fc(7)]GGGGGAQWVNEVVCEWDPWTCNHWDTPLE (not fully specified (bridges); cysteine pairing not given here) [Con4-18 (C)] returned an IC50 of 4.8 nM. This IC50 is about 9.2-fold higher than that of the molecule before.

For M[Fc(4)]GGGGGAQNVRQEKCEWDPWTCEHMPVRLE (not fully specified; cysteine pairing not given here) [Con4-41 (C)], the IC50 turned out to be 0.26 nM.

Take M[Fc]GGGGGAQWYEQDACEWDPWTCEHMAEVLE (not fully specified; cysteine pairing not given here) [Con4-4 (C)]: the IC50 was found to be 0.12 nM.

Take M[Fc(7)]GGGGGAQAWGQEGCDWDPWTCEHMLPMLE (not fully specified (bridges); cysteine pairing not given here) [Con4-28 (C)]: the IC50 came out at 0.3 nM.

In the case of M[Fc(7)]GGGGGAQDKILEECEWDPWTCRLLQGWLE (not fully specified (bridges); cysteine pairing not given here) [AC3-Con4 (C)], the IC50 is above 1000 nM.

On to M[Fc(4)]GGGGGAQLWQLAVCQWDPQTCDHMGALLE (not fully specified; cysteine pairing not given here) [Con4-7 (C)], for which the IC50 is above 1000 nM.

M[Fc(7)]GGGGGAQVVQVGMCQWDPWTCKHMRLQLE (not fully specified (bridges); cysteine pairing not given here) [Con4-19 (C)] gave an IC50 of 5.76 nM.

On to M[Fc(7)]GGGGGAQPDTRQGCQWDPWTCRLYGMWLE (not fully specified (bridges); cysteine pairing not given here) [Con4-24 (C)], for which the IC50 was above 1000 nM.

On to M[Fc(7)]GGGGGAQVWRSQVCQWDPWTCNLGGDWLE (not fully specified (bridges); cysteine pairing not given here) [Con4-22 (C)], for which the IC50 came to 150 nM.

The molecule M[Fc(4)]GGGGGAQATFARQCQWDPWTCALGGNWLE (not fully specified; cysteine pairing not given here) [Con4-5 (C)] gave an IC50 above 1000 nM.

M[Fc(7)]GGGGGAQRTTQEKCEWDPWTCEHMESQLE (not fully specified (bridges); cysteine pairing not given here) [Con4-29 (C)] gave an IC50 of 0.41 nM.

Molecule M[Fc(7)]GGGGGAQQGMKMFCEWDPWTCAHIVYRLE (not fully specified (bridges); cysteine pairing not given here) [Con4-11 (C)] displayed an IC50 of 9.7 nM.

The molecule M[Fc(7)]GGGGGAQQWSWPPCEWDPWTCQTVWPSLE (not fully specified (bridges); cysteine pairing not given here) [Con4-15 (C)] yielded an IC50 of 15 nM.

M[Fc(4)]GGGGGAQAATQEECEWDPWTCEHMPRSLE (not fully specified (bridges); cysteine pairing not given here) [Con4-C5 (C)] came in with an IC50 of 0.16 nM. This IC50 is about 94-fold lower than that of the molecule before.

M[Fc(4)]GGGGGAQWPQTEGCQWDPWTCRLLHGWLE (not fully specified; cysteine pairing not given here) [Con4-6 (C)] had an IC50 above 1000 nM.

In turn, M[Fc]GGGGGAQVKTQEHCDWDPWTCEHMREWLE (not fully specified; cysteine pairing not given here) [Con4-34 (C)] yielded an IC50 of 0.28 nM.

The molecule M[Fc(4)]GGGGGAQSTIGDMCEWDPWTCAHMQVDLE (not fully specified; cysteine pairing not given here) [Con4-8 (C)] returned an IC50 of 1.2 nM.

M[Fc]GGGGGAQKSTQDDCDWDPWTCEHMVGPLE (not fully specified; cysteine pairing not given here) [Con4-32 (C)] registered an IC50 of 0.75 nM.
